21 variants from the supplement of paper PMC6757056 can be followed below.

B1: library; a variant is named by its letters at N, in order (parent)
chain: GCUGUCACCGGUGUAUUACCCUAGUGGUCGACCGGUCUGAUGAGUCUNNNNNNAGACGAAACAGC

± gives the standard deviation of the averaged measurements.

In data set [1] the parent is B1. The data set is described as follows: normalized RNA/DNA level with ligand (relative to sTRSVctl = 100) (log10 (% of sTRSVctl)); ligand: hypoxanthine (xanthine aptamer); higher = less ribozyme self-cleavage, higher mRNA level. As to conditions: ligand concentration (+) RNA-Seq: 5 mM, HEK293T, reporter: mCherry (pCS4076), ligand present: yes. An outline of the steps: (§1)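 Library plasmids carrying ribozyme switches linked to mCherry, or to eGFP in some ligand experiments, were transfected into HEK293T at 4 µg per 6-well well, with any ligand added 1 h earlier. Seventy-two hours on, total RNA was extracted with EDTA and reverse-transcribed, amplified, barcoded and sequenced. RNA level was RNA over DNA reads normalized to a spiked-in non-cleaving sequence or to the top sequences, then scaled and log-transformed. The top set was 25 sequences, the transform was ×100 and log10, and sequences needed ≥100 DNA reads.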

In data set [2] the parent is B1. The data set is described as follows: normalized RNA/DNA level without ligand (relative to sTRSVctl = 100) (log10 (% of sTRSVctl)); ligand: hypoxanthine (xanthine aptamer); higher = less ribozyme self-cleavage, higher mRNA level. As to conditions: HEK293T, reporter: mCherry (pCS4076), ligand present: no. An outline of the steps: as §1

Regarding GCUGUCACCGGUGUAUUACCCUAGUGGUCGACCGGUCUGAUGAGUCUCAAUUCAGACGAAACAGC [CAAUUC], in data set [1], the “normalized RNA/DNA level with ligand (log10)” value was 1.93 ± 0.07. Besides, the “normalized RNA/DNA level without ligand (log10)” value in data set [2] amounted to 1.87 ± 0.058.
Take GCUGUCACCGGUGUAUUACCCUAGUGGUCGACCGGUCUGAUGAGUCUUAAUCCAGACGAAACAGC [UAAUCC]: the “normalized RNA/DNA level with ligand (log10)” value in data set [1] was 1.917 ± 0.015. Moreover, the “normalized RNA/DNA level without ligand (log10)” value in data set [2] came to 1.84 ± 0.041.
With GCUGUCACCGGUGUAUUACCCUAGUGGUCGACCGGUCUGAUGAGUCUUAAUCAAGACGAAACAGC [UAAUCA], in data set [1], the “normalized RNA/DNA level with ligand (log10)” value stood at 1.955 ± 0.019. Besides, the “normalized RNA/DNA level without ligand (log10)” value in data set [2] was 1.886 ± 0.0084.
Take GCUGUCACCGGUGUAUUACCCUAGUGGUCGACCGGUCUGAUGAGUCUGAAUCUAGACGAAACAGC [GAAUCU]: the “normalized RNA/DNA level with ligand (log10)” value in data set [1] worked out at 1.9 ± 0.069. In data set [2], the “normalized RNA/DNA level without ligand (log10)” value worked out at 1.9 ± 0.044.
As to GCUGUCACCGGUGUAUUACCCUAGUGGUCGACCGGUCUGAUGAGUCUGAAUCCAGACGAAACAGC [GAAUCC], the “normalized RNA/DNA level with ligand (log10)” value in data set [1] came out at 1.93 ± 0.067. For the same variant, in data set [2], the “normalized RNA/DNA level without ligand (log10)” value is 1.898 ± 0.008.
As for GCUGUCACCGGUGUAUUACCCUAGUGGUCGACCGGUCUGAUGAGUCUCAAUAUAGACGAAACAGC [CAAUAU], the “normalized RNA/DNA level with ligand (log10)” value in data set [1] was 1.929 ± 0.016. Also, in data set [2], the “normalized RNA/DNA level without ligand (log10)” value was 1.811 ± 0.01.
As to GCUGUCACCGGUGUAUUACCCUAGUGGUCGACCGGUCUGAUGAGUCUCAAUAGAGACGAAACAGC [CAAUAG], in data set [1], the “normalized RNA/DNA level with ligand (log10)” value was 1.905 ± 0.0064. In data set [2], the “normalized RNA/DNA level without ligand (log10)” value worked out at 1.69 ± 0.03.
Regarding GCUGUCACCGGUGUAUUACCCUAGUGGUCGACCGGUCUGAUGAGUCUAAAUACAGACGAAACAGC [AAAUAC], the “normalized RNA/DNA level with ligand (log10)” value in data set [1] worked out at 1.89 ± 0.026. In addition, the “normalized RNA/DNA level without ligand (log10)” value in data set [2] came out at 1.77 ± 0.048.
GCUGUCACCGGUGUAUUACCCUAGUGGUCGACCGGUCUGAUGAGUCUUAAUGAAGACGAAACAGC [UAAUGA]: the “normalized RNA/DNA level with ligand (log10)” value in data set [1] amounted to 1.91 ± 0.024. For the same variant, the “normalized RNA/DNA level without ligand (log10)” value in data set [2] came out at 1.653 ± 0.0099.
In the case of GCUGUCACCGGUGUAUUACCCUAGUGGUCGACCGGUCUGAUGAGUCUUAAUGCAGACGAAACAGC [UAAUGC], the “normalized RNA/DNA level with ligand (log10)” value in data set [1] is 1.93 ± 0.023. In data set [2], the “normalized RNA/DNA level without ligand (log10)” value was 1.823 ± 0.0029.
In the same order, the values of GCUGUCACCGGUGUAUUACCCUAGUGGUCGACCGGUCUGAUGAGUCUUAAUGUAGACGAAACAGC [UAAUGU] are 1.89 ± 0.045 and 1.599 ± 0.0059.
The like results for GCUGUCACCGGUGUAUUACCCUAGUGGUCGACCGGUCUGAUGAGUCUUAAGUCAGACGAAACAGC [UAAGUC] were, in that order, 1.932 ± 0.0068 and 1.925 ± 0.016.
For the variant GCUGUCACCGGUGUAUUACCCUAGUGGUCGACCGGUCUGAUGAGUCUUAAGUUAGACGAAACAGC [UAAGUU], in data set [1], the “normalized RNA/DNA level with ligand (log10)” value turned out to be 1.97 ± 0.025. Moreover, the “normalized RNA/DNA level without ligand (log10)” value in data set [2] was 1.83 ± 0.02.
As to GCUGUCACCGGUGUAUUACCCUAGUGGUCGACCGGUCUGAUGAGUCUUAAGUAAGACGAAACAGC [UAAGUA], the “normalized RNA/DNA level with ligand (log10)” value in data set [1] came to 1.89 ± 0.041. Moreover, the “normalized RNA/DNA level without ligand (log10)” value in data set [2] came to 1.8797 ± 0.00095.
The like results for GCUGUCACCGGUGUAUUACCCUAGUGGUCGACCGGUCUGAUGAGUCUAAAUCUAGACGAAACAGC [AAAUCU] were, in that order, 1.94 ± 0.089 and 1.9 ± 0.039.
Take GCUGUCACCGGUGUAUUACCCUAGUGGUCGACCGGUCUGAUGAGUCUAAAUCCAGACGAAACAGC [AAAUCC]: the “normalized RNA/DNA level with ligand (log10)” value in data set [1] was 1.94 ± 0.055. In addition, the “normalized RNA/DNA level without ligand (log10)” value in data set [2] was 1.829 ± 0.0029.
On to GCUGUCACCGGUGUAUUACCCUAGUGGUCGACCGGUCUGAUGAGUCUCAAUGAAGACGAAACAGC [CAAUGA], for which the “normalized RNA/DNA level with ligand (log10)” value in data set [1] was 1.92 ± 0.038. The “normalized RNA/DNA level without ligand (log10)” value in data set [2] came out at 1.82 ± 0.051.
As for GCUGUCACCGGUGUAUUACCCUAGUGGUCGACCGGUCUGAUGAGUCUCAAUGCAGACGAAACAGC [CAAUGC], in data set [1], the “normalized RNA/DNA level with ligand (log10)” value amounted to 1.95 ± 0.047. In addition, the “normalized RNA/DNA level without ligand (log10)” value in data set [2] was determined as 1.89 ± 0.029.
For the variant GCUGUCACCGGUGUAUUACCCUAGUGGUCGACCGGUCUGAUGAGUCUGAAUAUAGACGAAACAGC [GAAUAU], the “normalized RNA/DNA level with ligand (log10)” value in data set [1] was found to be 1.93 ± 0.043. In data set [2], the “normalized RNA/DNA level without ligand (log10)” value stood at 1.8073 ± 0.00093.
The like results for GCUGUCACCGGUGUAUUACCCUAGUGGUCGACCGGUCUGAUGAGUCUGACAAGAGACGAAACAGC [GACAAG] were, in that order, 1.83 ± 0.043 and 1.36 ± 0.018.
The like results for GCUGUCACCGGUGUAUUACCCUAGUGGUCGACCGGUCUGAUGAGUCUGACAAUAGACGAAACAGC [GACAAU] were, in that order, 1.897 ± 0.017 and 1.815 ± 0.013.
